Data reported in PMC8985661.

Tests used:
[1] = target: microtubules (MTs; α-tubulin/β-tubulin) (UniProt P02554); assay: other fluorescence titration; fluorescently labeled MAP7 on MTs at different concentrations, fluorescence intensity fit to the Hill equation; 150 mM KAc
[2] = target: microtubules (MTs; α-tubulin/β-tubulin) (UniProt P02554)

For “full-length (FL) MAP7 (from UniProt Q14244 1-749) (natural protein)”, the Kd [1] was 111 nM and the half-max inhibition constant of the run frequency of dynein-dynactin-BicDR1 (DDR) on MTs against MAP7 concentration (blocks dynein on MTs); 150 mM KAc [2] was 10 nM.
